# Experimental data as given in the supplement of paper PMC12042874.
# ± gives the uncertainty stated by the source.
# Experiment: amyloid nucleation score (Sup35N fusion, yeast selection) (log enrichment); library NNK2; higher = more nucleation; inactive = no reads after selection
# Procedure, shortened: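 Three technical output replicates were used for random libraries. Psi-negative yeast expressing peptides of 20 random codons fused to Sup35N were induced with 100 μM copper sulfate for 24 hours and grown 7 days at 30°C on medium lacking adenine and uracil, and input and output plasmid inserts were Illumina-sequenced, excluding sequences with under 100 input reads. The nucleation score is the DiMSum log enrichment of output over input reads, centred on the mode score of non-aggregating sequences.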
row,Substance,amyloid nucleation score
1,WANFWSGWKVTLVCCCKIVA,3.7 ± 0.078
2,KTYDGGFKRNRDEVGPKPGE,-0.326 ± 1
3,NAVFVFSRWWYISNVVPQK,-1.48 ± 1.1
4,DVEHPLYWPEDVLKASSETV,1.91 ± 0.12
5,SVVMTIHNIGWMLRCSGIVY,-0.823 ± 0.56
6,GMRWSFGVLASRSFCVKWCP,5.57 ± 0.09
7,SCVLRP,0.064 ± 0.33
8,RQMDHYQRGFLIIYCQLTDK,inactive
9,RRPFVRRLFVLKNMFNSLGR,-0.707 ± 1.1
10,THSNWTKNSVSSIYCIKILF,6.647 ± 0.037
11,VGNIGSSTC,-0.159 ± 0.45
12,IGRSMGRTFWR,1.5 ± 0.18
13,TDLECKQLG,1.88 ± 0.11
14,EFLLNMAYSSGGSWTEVFRV,-0.005 ± 0.63
15,IYAQAFFVYHTLFWGGGDQW,0.495 ± 0.16
16,VTFYGGAYSENYLVRCYALN,4.47 ± 0.057
17,YISGQWCLMCRRRGISACVR,-0.182 ± 0.55
18,TWFCVGKVASSMWVYQGVNF,0.662 ± 0.52
19,EQHIDSAMENFSDHDIVMLG,4.76 ± 0.064
20,CIQIAIYGWFTDTTIRG,6.48 ± 0.03
21,VHGDMVFVCLTRCYRMF,5.37 ± 0.065
22,LQTAIVGSPRLVTFRIYIER,7.197 ± 0.065
23,CNGSRVKDFRCRFRWNGLGL,-0.889 ± 0.41
24,SKLTRSIENLLF,0.949 ± 0.15
25,LAKRGCVIVCFLTFHYTIRR,-0.348 ± 0.28

row,Substance,amyloid nucleation score
1,CYRNNWTMWVVSQRYHRNGK,-0.289 ± 0.22
2,TADISLYLRHST,6.442 ± 0.049
3,KHLMMDCAKRMQLRNIRDES,0.216 ± 0.2
4,RSGNRGPVARYVGYERCMGK,0.629 ± 0.56
5,PDFSDFITHLIGFRSMGTGG,-0.694 ± 1.1
6,LCKVCSMITVGSGSGSVYSQ,inactive
7,SVTVTSLWHGTEL,-0.22 ± 1.1
8,GSDFQFRSSATVLSAVEFLL,-0.227 ± 0.35
9,FLFETMVIFSSSEMVWRDWC,0.192 ± 1
10,TGYVTRIVAAFCSQKIFVWV,-0.547 ± 0.49
11,VLALYYINSATLILFLIFKS,-1.16 ± 1.1
12,LFVPGLNR,0.047 ± 0.31
13,YFNPI,5.196 ± 0.047
14,MYTVGWHSTQCFLEDFGRTL,3.13 ± 0.075
15,IMNGLMDFMLTKVLKDMFNW,-0.249 ± 1.1
16,NASVHPMFL,-0.24 ± 0.48
17,SVDIGYS,0.586 ± 0.81
18,IQLIRHCSSLNRTYQVSVSR,0.364 ± 0.3
19,VIKGIEGVHGEKHVVYKVIC,4.19 ± 0.065
20,FRWCKRMGLCNLVNDLGCDW,0.446 ± 0.64
21,CTMLLGSESEGWSLQIFVLL,0.05 ± 0.62
22,QLHIWVVIRYPLYLINKTVW,0.436 ± 0.8
23,LRWVKKRTAAQN,-0.023 ± 0.63
24,SGSALLIEFRYSTSFREKRI,5.687 ± 0.046
25,CYGYMIMSAFMVGHWEPDRM,0.205 ± 0.77

row,Substance,amyloid nucleation score
1,YMCCFYAVGFPFDYKLGFVR,4.35 ± 0.068
2,NVVSLIIQRKLRPAPVGSFR,0.218 ± 1.1
3,WSFHRR,-0.552 ± 0.36
4,KRKLSKYFLRLKLKCFWVM,-0.753 ± 0.48
5,MSKEVVSSGYVIHIRRQRGG,0.82 ± 0.57
6,WYSVLSFDSFFWPWALLVVY,-1.16 ± 0.49
7,VLSHYIRLHKSLDLSYSNGV,-0.817 ± 0.61
8,LHNLAAGNSRLTSNLMFALA,inactive
9,SVIEISECLERVVRWHRVAG,1.76 ± 0.33
10,LFTIVTTFKRS,6.443 ± 0.056
11,VKVQKINGGCVGFDLTWLCN,8.863 ± 0.034
12,KRDFPISATSRLCVAFFFIY,-0.975 ± 0.38
13,DSGRA,-0.351 ± 0.63
14,HNLFNHIADNQGRGIEEKLT,-0.003 ± 1.1
15,KFWDSDVGVGGHHV,inactive
16,WPRFTCCPTYYICIAQSPGQ,9.807 ± 0.035
17,QLVGSLGGAQGTAGRYRYTG,0.658 ± 0.51
18,VYSANSWH,-0.364 ± 0.3
19,YMRVLGVDGHIRCVWLD,inactive
20,MNEFCRTGCRTFRQRSSCCR,0.868 ± 0.15
21,TTQDHFFSL,inactive
22,SNLNLFITYLTLSTNDR,9.225 ± 0.042
23,LTPIPFYNPDNISYYNAFPS,inactive
24,DVDFRSMCEGTFSLNDQPNR,-0.825 ± 0.78
25,KFNILPKLWMDICMIYLAVY,-1.33 ± 0.49

row,Substance,amyloid nucleation score
1,VVSCGYARHDVGDFWLRDCR,0.481 ± 0.38
2,FRGITASYEPIGGARMSARE,-0.001 ± 0.62
3,IGRCDELGRCRTRARACSGL,7.78 ± 0.084
4,FWRVRVFGASLFL,inactive
5,YSVLTLED,0.374 ± 0.29
6,FVFHWLFVSSRACILHPVVW,0.604 ± 0.3
7,WFAWYCSSRYRHRR,3.57 ± 0.087
8,GKGDVGESRADCLAYSRRMS,0.868 ± 0.45
9,TANKLLVSIIKIEEYVSRGT,4.73 ± 0.058
10,CVSFVQSFCYIHIQLNYHCR,-0.43 ± 1.1
11,EGWTWGGRLNKAQILTECVL,1.49 ± 0.38
12,LCYPCRACPGTKNALADRLG,3.56 ± 0.087
13,TFSVQAVNLFSIWVLSGPGD,8.02 ± 0.034
14,KRGRDV,-0.292 ± 0.49
15,VVRGRSGLCNMFWCDRQRRL,-0.63 ± 0.34
16,SYLKETMTGLLPLG,inactive
17,SLVVPDRYVNARYCNCCYGG,0.43 ± 0.65
18,AMLDLRINTSRAGSHSRVVT,2.81 ± 0.069
19,HCMLEYRMIVCVLVYAGYNM,0.448 ± 0.47
20,QGYLLFN,0.467 ± 0.19
21,VNCYTIWVGNSSRSVHSINA,5.27 ± 0.083
22,APTCSKCCIFMQC,5.99 ± 0.072
23,GRGADKLTIG,0.288 ± 0.36
24,CFVRTVFL,inactive
25,TVWGYSSDLKLLEFISIGTQ,2.71 ± 0.12

row,Substance,amyloid nucleation score
1,TLKRSRPVLYNLYNGFVVVA,2.25 ± 0.21
2,WDTSGRFVLNWVFWEGHPKM,0.768 ± 0.56
3,PEFICYCANSACDWSTYCIG,7.356 ± 0.036
4,VSLINFFVNL,8.418 ± 0.056
5,YGYKMVTSYVGFL,0.753 ± 0.81
6,IDPADVGILSCCFLNDSKHE,0.467 ± 0.46
7,MVCLLSFPHPCGINLMVARN,-0.147 ± 0.37
8,LLAIVVILKSTAPGKRY,inactive
9,FGNDPSGCVNQAYYHRCFLD,-0.959 ± 0.78
10,NDTRSLLML,0.259 ± 0.24
11,LIGFLEEKVLLFIITWCFQ,inactive
12,ILAQNCSFYLGVTLRIARRH,1.21 ± 0.43
13,SWCFYMKGEWWYLLFHSNRS,-1.73 ± 0.55
14,NVCIKLARCVVGLNLRFRGS,-0.347 ± 0.79
15,DIMAAIYMDG,0.715 ± 0.43
16,RMVLSGNLLQRNRNYPNQRM,2.03 ± 0.079
17,LSLYIGFYMKGGSCRC,0.007 ± 0.79
18,VTNCNPDRW,-0.149 ± 0.63
19,YYSFPISIGWVSNCMFVWEV,6.53 ± 0.073
20,NHVNNLIHDFRPALEHLRDT,-0.134 ± 0.45
21,MLLIIVWQILMKLNGWITVL,inactive
22,DLYSHSFNLHGYSMRVCYNE,0.147 ± 0.65
23,SQGCVICGFYLLWHPNRHCQ,9.447 ± 0.051
24,YEVHDDLYYTNKLRTRANGV,1.46 ± 0.43
25,THVRVEVLS,inactive

row,Substance,amyloid nucleation score
1,LFVASVSLTAHNRGGDTWRR,5.8 ± 0.084
2,NRSFNMHPCGILKKNLVVGV,0.613 ± 0.74
3,VGDVGMFFLSR,-0.668 ± 0.34
4,HMLAPCFNM,-1.58 ± 0.78
5,LVDRPGFSVNVD,-0.191 ± 0.35
6,SLPCRIISNLYLPA,-1.23 ± 1.1
7,DMGVFSLLDNK,0.579 ± 0.66
8,INFMAVDDKPRVVVEPCPSA,0.623 ± 0.62
9,CAVVRGLTVKAVL,-0.64 ± 0.76
10,QSRSYFRRGVTSCLHPGWET,0.452 ± 0.53
11,PMYRILNSTKESSGFALRGP,-0.952 ± 0.45
12,VYYLVCGL,0.147 ± 0.38
13,HLLLEKDPSVWLWPKNRPGS,3.35 ± 0.088
14,EFIAISLSFVPLYRVVSGSG,-0.674 ± 0.79
15,EMDNGDSGTVW,-0.186 ± 0.76
16,GAAHDSYMNRWLITWNSKCK,-1.52 ± 0.76
17,HYVPDPDITL,-0.504 ± 0.32
18,GISVLRQTVFDLSIFIPHTS,4.42 ± 0.055
19,FMVILSGYIVL,0.429 ± 0.66
20,VVMHQSAVCYEHEMTLVRRF,0.027 ± 1
21,FIICPSSDCNIRDIRRILTC,-0.967 ± 0.28
22,TYCFLGFQNIPSMLNPMNFG,2.98 ± 0.046
23,LDCIS,-0.647 ± 0.55
24,RSWVLLSYAPFHCS,0.482 ± 0.19
25,FCSTTAICYKGEKQ,3.47 ± 0.14

row,Substance,amyloid nucleation score
1,RIFQLSTSGN,0.072 ± 1.1
2,CMIIKGCTVWVVRP,9.469 ± 0.055
3,AFSSLFWIWIPSNMRSQVLK,0.124 ± 0.42
4,FRVMQNFHQSYGHYKWVFHF,5.57 ± 0.057
5,YAIFYGRLNMCGSGLSVPRE,0.381 ± 0.62
6,YYRRNKIWSVSQQWGGIRSR,0.596 ± 0.62
7,RRAENLMEFGLIRAFY,-0.007 ± 0.63
8,TYIPGLVRTSLCGVA,-0.245 ± 0.35
9,RFHRYTILLLLTPEWTEHAI,0.52 ± 0.57
10,KDGSPYKYLA,-0.554 ± 0.63
11,ILLRWNSTSTEVHHVGPTWV,0.872 ± 0.42
12,QIFFWSSFN,inactive
13,MASVMLQCHGCPLGKGTARA,0.879 ± 0.41
14,NVPLFRSVSGDPVHHPLI,2.41 ± 0.15
15,YAFQGHGNFETGSYPEVLAA,0.098 ± 0.49
16,EINGY,-0.418 ± 1
17,GMPQESHSYPLYEMLLGRVG,-0.064 ± 0.3
18,LWVLTSRDDVFMVVFFMTPK,-0.483 ± 0.5
19,QFRTIHAHYNFFG,7.68 ± 0.048
20,EAHGSWL,0.764 ± 0.38
21,FPIFKHDWLFYWCTPSIKGR,-1.06 ± 0.31
